Drawing on publication PMC2196190, this text covers stoichiometry N for one substance.

For the experiment, the target named is hBUBR1 (human (endogenous in HeLa)) (UniProt O60566). Put plainly: co-IP.

What is called stoichiometry N is the number of molecules, sites or subunits per partner or assembly.

Chain of UniProt O60566 (O60566 whole entry): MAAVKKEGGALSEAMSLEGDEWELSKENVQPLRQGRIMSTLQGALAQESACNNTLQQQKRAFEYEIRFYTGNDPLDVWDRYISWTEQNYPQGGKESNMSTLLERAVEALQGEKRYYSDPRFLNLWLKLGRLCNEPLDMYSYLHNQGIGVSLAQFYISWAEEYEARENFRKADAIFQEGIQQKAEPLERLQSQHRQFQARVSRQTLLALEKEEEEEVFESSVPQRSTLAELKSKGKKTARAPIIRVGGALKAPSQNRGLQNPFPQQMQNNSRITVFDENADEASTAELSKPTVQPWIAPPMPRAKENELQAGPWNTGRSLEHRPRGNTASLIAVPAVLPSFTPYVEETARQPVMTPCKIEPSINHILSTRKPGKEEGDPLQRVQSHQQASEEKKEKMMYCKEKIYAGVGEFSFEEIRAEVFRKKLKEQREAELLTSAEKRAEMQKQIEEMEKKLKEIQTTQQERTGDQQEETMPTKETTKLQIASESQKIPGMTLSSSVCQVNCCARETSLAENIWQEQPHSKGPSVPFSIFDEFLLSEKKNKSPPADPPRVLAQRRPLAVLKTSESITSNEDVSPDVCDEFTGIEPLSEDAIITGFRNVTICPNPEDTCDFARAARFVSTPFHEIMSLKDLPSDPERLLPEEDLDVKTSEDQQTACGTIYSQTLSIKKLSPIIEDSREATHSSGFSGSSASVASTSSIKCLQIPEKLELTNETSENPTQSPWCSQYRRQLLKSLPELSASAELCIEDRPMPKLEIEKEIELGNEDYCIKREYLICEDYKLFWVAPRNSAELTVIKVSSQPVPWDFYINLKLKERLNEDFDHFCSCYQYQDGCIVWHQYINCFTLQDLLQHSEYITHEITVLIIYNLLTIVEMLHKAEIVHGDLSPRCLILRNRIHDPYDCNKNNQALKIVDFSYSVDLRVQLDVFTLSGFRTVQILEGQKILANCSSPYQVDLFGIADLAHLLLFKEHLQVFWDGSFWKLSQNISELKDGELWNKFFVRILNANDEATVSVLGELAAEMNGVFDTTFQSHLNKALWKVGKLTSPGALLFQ

In turn, “anaphase-promoting complex/cyclosome (APC/C) from mitotic HeLa cells (from UniProt P30260;Q13042;Q9UJX3)” had a stoichiometry N of 1.
